This data set deals with T1, Dickkopf-1 (DKK-1) (human, UniProt O94907 32-266).
T1 sequence: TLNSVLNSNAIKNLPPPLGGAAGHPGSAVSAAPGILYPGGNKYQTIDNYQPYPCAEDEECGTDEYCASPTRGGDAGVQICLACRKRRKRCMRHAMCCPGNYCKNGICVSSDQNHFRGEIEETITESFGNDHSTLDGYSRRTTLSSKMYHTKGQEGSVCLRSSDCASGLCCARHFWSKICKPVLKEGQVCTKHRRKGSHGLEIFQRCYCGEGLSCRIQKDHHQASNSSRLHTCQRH
In words: ELASA; ELASA: DKK-1 coated at 2 ug/mL, BSA-blocked; aptamer 3.12-100 nM in PBSMT (1x PBS pH 7.4, 5 mM MgCl2, 0.05% Tween 20), 1 h, 25 C. The conditions noted are these: protein: commercial, tags: N-terminal His-tag (stated for the selection protein), label: biotin.

Five molecules from article PMC11594316, “Novel DNA Aptamers to Dickkopf-1 Protein and Their Application in Colorimetric Sandwich Assays for Target Detection in Patients with Axial Spondyloarthritis” can be followed below.

Broadly, the Kd is the free concentration of one partner at which half of the binding sites on the other are occupied at equilibrium, for simple one-to-one binding. Low values mean a tighter complex, high ones a looser complex.

CGGCATGTATCTGGCTGCTGAGTGTACGATTCCAGTATATATGAGCCG (ssDNA, 3'-amino linker (C6, Spacer 18)) [DK1_48t] yielded a Kd (stem-loop) of 10 ± 6 nM.

B1: DK2_58t (ssDNA)
DNA: CGACTCGGTGTACCCGCATAGACCCTGCGTCCGCTGTATGTACACGTAAGCCCTGTCG
modifications: 3'-amino linker (C6, Spacer 18)
Take B1: the Kd (three-way junction) stood at 3.6 ± 2 nM. On the same count and under the same terms, with CACGACTCGGAGTGCGTACAGCAAGCACATATGTGCTCTCCCAGAGCGTG (ssDNA, 3'-amino linker (C6, Spacer 18)) [DK4_50t] the figure was 6.1 ± 2 nM; with CGGTGTACCCGCATAGACCCTGCGTCCGCTGTATGTACACGTAAGCCG (ssDNA, 3'-amino linker (C6, Spacer 18)) [DK2_48t], 3.3 ± 2 nM; with CCTCGGAGTGCGTACAGCAAGCACATATGTGCTCTCCCAGG (ssDNA, 3'-amino linker (C6, Spacer 18)) [DK4_41t], 5.6 ± 3 nM.
